Test results taken from patent US20180362629A1 (ZOETIS BELGIUM S A, published 2018).
Read-outs that look alike come from different tables or passages of the source.

Key:
recombinant canine β NGF [1] = target: T1, recombinant canine β NGF (canine, UniProt Q29074 110-229 (pig entry)); assay: direct ELISA, canine NGF coated at 1 µg/ml, mAb at 0.4 µg/ml
T1 construct: also called canine NGF
T1 chain: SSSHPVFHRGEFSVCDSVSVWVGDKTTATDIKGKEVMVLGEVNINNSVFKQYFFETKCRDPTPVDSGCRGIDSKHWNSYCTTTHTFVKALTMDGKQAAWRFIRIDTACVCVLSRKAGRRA
Procedure: (§1) To determine if purified mouse anti-NGF mAbs bind to canine β NGF, ELISA plates were coated with 50 μl/well of canine NGF (Abbott Laboratories) at 1 μg/ml in PBS and incubated over night at 4° C. The plates were washed three times with PBS+Tween buffer. The plates were blocked with 200 μl/well of 2% milk in PBS for 1 hour at room temperature. The plates were washed three times as above. Purified antibodies were diluted to 0.4, 2, or 10 μg/ml. 50 μl of each concentration of purified antibody was added to the plates. The plates were incubated for 1 hour at room temperature. The plates were washed. 50 μl of a 5000-fold diluted goat anti-mouse IgG Fc-HRP (Thermo, catalog #31439) was added. The plates were incubated for 1 hour at room temperature. 50 μl of TMB (Invitrogen, catalog #00-2023) was added and the reaction was stopped using 2N H₂SO₄ (VWR, catalog # BDH3500-1). The absorbance at 450 nm was read on a Spectromax 2E plate reader (Molecular Devices). The results are shown in Table 9, and the numerical value indicates binding of mouse anti-NGF antibodies to canine β NGF.

recombinant canine β NGF [2] = target: T1, recombinant canine β NGF; assay: SPR (Biacore), mAb captured on goat anti-mouse IgG Fc, canine NGF injected; Average
Procedure: (§2) A biomolecular protein interaction analysis was used to evaluate the binding kinetics of the interaction between the purified anti-NGF hybridoma antibodies and recombinant canine β NGF. The antibodies were captured using a goat anti-mouse IgG FC (10000 RU) surface which was directly immobilized to a CM5 chip using an amine coupling procedure according to the manufacturer's instructions (Biacore). A sample size of 5 μl of antibody at a concentration of 1 μg/ml was captured at 10 μl minute. Recombinant canine NGF was used as the antigen. Canine NGF was injected at 75 μl/min (concentration range: 5-0.039 nM) for mouse antibodies. The association rate was monitored for 3.3 minutes and the dissociation rate was monitored for 10 minutes. Aliquots of canine NGF were also simultaneously injected over a reference reaction CM surface to record any nonspecific binding background. The instrument sensitivity for on-rate is I×IO⁷, such that any on-rate that is faster than I×IO⁷ may not be accurately measured; the instrument sensitivity for off-rate is […], such that any off-rate that is slower than 1×10⁻⁶ may not be accurately measured. Therefore, an on-rate that is faster than 1×10⁷ is recorded as >1×10⁷ and an off-rate that is slower than 1×10⁻⁶ is recorded as <1×10⁻⁶.

recombinant canine β NGF [3] = target: T1, recombinant canine β NGF; assay: SPR (Biacore), mAb captured on goat anti-mouse IgG Fc, canine NGF injected; Average; Average
Procedure: as §2

recombinant canine β NGF [4] = target: T1, recombinant canine β NGF; assay: direct ELISA, canine NGF coated at 1 µg/ml, mAb at 2 µg/ml
Procedure: as §1

recombinant canine β NGF [5] = target: T1, recombinant canine β NGF; assay: cell-based or functional assay
recombinant canine β NGF [6] = target: T1, recombinant canine β NGF; assay: cell-based or functional assay
recombinant canine β NGF [7] = target: T1, recombinant canine β NGF; assay: direct ELISA, canine NGF coated at 1 µg/ml, mAb at 10 µg/ml
Procedure: as §1

recombinant canine β NGF [8] = target: T1, recombinant canine β NGF; assay: SPR (Biacore), mAb captured on goat anti-mouse IgG Fc, canine NGF injected; Expt 2
Procedure: as §2

recombinant canine β NGF [9] = target: T1, recombinant canine β NGF; assay: SPR (Biacore), mAb captured on goat anti-mouse IgG Fc, canine NGF injected; Expt 1; Expt 1
Procedure: as §2

recombinant canine β NGF [10] = target: T1, recombinant canine β NGF; assay: SPR (Biacore), mAb captured on goat anti-mouse IgG Fc, canine NGF injected; Expt 1
Procedure: as §2

recombinant canine β NGF [11] = target: T1, recombinant canine β NGF; assay: cell-based or functional assay
recombinant canine β NGF [12] = target: T1, recombinant canine β NGF; assay: SPR (Biacore T100), antibody captured on goat anti-canine IgG, canine NGF injected; Expt 1
Procedure: (§3) Purified mouse/canine chimeric antibodies and caninized antibodies were analyzed for affinity to canine NGF using a Biacore T100 instrument. Goat anti Canine IgG (Southern Biotech) was immobilized at 5000-10000 RU on a CM5 chip using an amine coupling procedure according to the manufacturer's instructions (Biacore). […] The association rate was monitored for 5 min and the dissociation rate was monitored for 10-20 min. The chip surface was regenerated using 50-75 ul 10 mM glycine pH 1.5 at a flow rate of 50-100 ul/min. Data was analyzed using Biaevaluation T100 software version 2.0.2, software, GE Healthcare Life Sciences (Piscataway, N.J.). Overall affinity parameters established for mouse/canine chimeric antibodies is summarized in Table 22 and for caninized antibodies in Table 23. […] The overall KDs of the mouse/canine anti-NGF mAbs range from about 1300 pM to 1.6 pM. […] The overall KDs of the caninized anti-NGF mAbs range from about 42 pM to 1.2 pM.

recombinant canine β NGF [13] = target: T1, recombinant canine β NGF; assay: SPR (Biacore T100), antibody captured on goat anti-canine IgG, canine NGF injected; Expt 1; Expt 1
Procedure: as §3

recombinant canine β NGF [14] = target: T1, recombinant canine β NGF; assay: SPR (Biacore T100), antibody captured on goat anti-canine IgG, canine NGF injected; Average
Procedure: as §3

recombinant canine β NGF [15] = target: T1, recombinant canine β NGF; assay: SPR (Biacore T100), antibody captured on goat anti-canine IgG, canine NGF injected; Expt 2
Procedure: as §3

[16] = target: human β NGF (R&D Systems catalog #256-GF/CF) (human, UniProt P01138 122-241); assay: cell-based or functional assay
Sequence of human β NGF (R&D Systems catalog #256-GF/CF) (P01138 122-241 limits assumed): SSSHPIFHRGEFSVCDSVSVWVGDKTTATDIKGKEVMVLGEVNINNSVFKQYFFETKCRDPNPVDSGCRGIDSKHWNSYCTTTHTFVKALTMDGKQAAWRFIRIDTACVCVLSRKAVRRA

B1: PR-1254982 (antibody, mouse IgG1, V domains shown)
VH: QVQLKESGPGLVAPSQSLSITCTVSGFSLTGYNINWVRQPPGKGLEWLGMIWGYGDTDYNSALKSRLSISKDNSKSQVFLKMNSLQTDDTARYYCARDHYGGNDWYFDVWGTGTTVTVSS
VL: DIQMTQTTSSLSASLGDRVTITCRASQDITNYLNWYQQKPDGTVKLLIYYTSRLHSGVPSRFSGSGSGTDYSLTISNLDQEDIATYFCQQGKTLPRTFGGGTKLEIKR
notes: also called 3F7; ML130-3F7.4A8
In the case of B1, the “absorbance at 450 nm” value (recombinant canine β NGF [1]) is reported as 0.095 A450, the Kd (recombinant canine β NGF [2]) is reported as under 0.1 pM and the kon (recombinant canine β NGF [2]) is reported as over 1e+07 M⁻¹ s⁻¹. For the same binder, the koff (recombinant canine β NGF [3]) was under 1e-06 s⁻¹, the “absorbance at 450 nm” value (recombinant canine β NGF [4]) was 0.142 A450 and the “PathHunter IC50 (441 pM canine NGF)” value (recombinant canine β NGF [5]) was 0.15 nM. The “SureFire pERK IC50 (128 pM canine β NGF)” value (recombinant canine β NGF [5]) was 5.8 pM, the “IC50, canine NGF-induced TF-1 cell proliferation (70 pM canine NGF)” value (shortened to “IC50 … (70 pM canine NGF)”) (recombinant canine β NGF [6]) was 25 pM and the “absorbance at 450 nm” value (recombinant canine β NGF [7]) was 0.208 A450. The Kd (recombinant canine β NGF [8]) was under 0.1 pM, the koff (recombinant canine β NGF [8]) was under 1e-06 s⁻¹ and the kon (recombinant canine β NGF [8]) was over 1e+07 M⁻¹ s⁻¹. It also gave a koff (recombinant canine β NGF [9]) of under 1e-06 s⁻¹, a Kd (recombinant canine β NGF [10]) of under 0.1 pM and a kon (recombinant canine β NGF [10]) of over 1e+07 M⁻¹ s⁻¹.

B2: 82.3 Canine IgG1/k (antibody, V domains shown)
VH: EVQLQESGPGLVKPSQTLSLTCTVSGFSLTGYNINWVRQRPDRGLEWLGMIWGYGDTDYNSALKSRLSISKDNTKSQVFLQLTSTTTEDTAVYYCARDHYGGNDWYFDVWGQGTLVTVSS
VL: DIQMTQTPLSLSASPGESASITCRASQDITNYLNWYRQKPGQSVKLLIYYTSRLHSGVPSRFSGSGSGTDYSLRISRVEDEDAGLYFCQQGKTLPRTFGQGTKLEIKR
notes: The variable/constant junction was not checked; also called PR-1313519; PR-13113519
With B2 the “IC50 … (70 pM canine NGF)” value (recombinant canine β NGF [11]) was 17 pM, the Kd (recombinant canine β NGF [12]) was 2.4 pM and the kon (recombinant canine β NGF [12]) was 8.2e+06 M⁻¹ s⁻¹. For the same binder, the koff (recombinant canine β NGF [13]) was 2e-05 s⁻¹, the Kd (recombinant canine β NGF [14]) was 2 pM and the koff (recombinant canine β NGF [14]) was 1.7e-05 s⁻¹. It also gave a kon (recombinant canine β NGF [14]) of 8.4e+06 M⁻¹ s⁻¹, a Kd (recombinant canine β NGF [15]) of 1.6 pM and a koff (recombinant canine β NGF [15]) of 1.3e-05 s⁻¹. The kon (recombinant canine β NGF [15]) was 8.5e+06 M⁻¹ s⁻¹.

B3: PR-1254980 (antibody, mouse IgG1, V domains shown)
VH: EVQLQQSGAELVKPGASVKLSCTASGFNIKDTYIYWVKQRPEQGLEWIGRIDPANGNTIYASKFQGKATITADTSSNTAYMQLSSLTSGDTAVYYCAGYGYYAYWGQGTTLTVSS
VL: DVVLTQTPLSLPVNIGDQASISCKSTKSLLNGDGFTYLDWYLQKPGQSPQLLIYLVSNRFSGVPDRFSGSGSGTDFTLKISRVEAEDLGVYYCFESNYLFTFGSGTKLEMKR
notes: also called 23F1; ML129-23F1.4G3
With B3 the “absorbance at 450 nm” value (recombinant canine β NGF [1]) was 0.168 A450, the Kd (recombinant canine β NGF [2]) was under 23.1 pM and the koff (recombinant canine β NGF [2]) was 0.000231 s⁻¹. For the same binder, the kon (recombinant canine β NGF [2]) was over 1e+07 M⁻¹ s⁻¹, the “absorbance at 450 nm” value (recombinant canine β NGF [4]) was 0.334 A450 and the “PathHunter % of max signal, supernatant 100-fold” value [16] was 5%. The “PathHunter IC50 (441 pM canine NGF)” value (recombinant canine β NGF [5]) was 0.381 nM, the “SureFire pERK IC50 (128 pM canine β NGF)” value (recombinant canine β NGF [5]) was 13.7 pM and the “IC50 … (70 pM canine NGF)” value (recombinant canine β NGF [6]) was 0.343 nM. The “absorbance at 450 nm” value (recombinant canine β NGF [7]) was 0.491 A450, the Kd (recombinant canine β NGF [8]) was under 22.5 pM and the koff (recombinant canine β NGF [8]) was 0.000225 s⁻¹. It also gave a kon (recombinant canine β NGF [8]) of over 1e+07 M⁻¹ s⁻¹, a Kd (recombinant canine β NGF [10]) of under 23.7 pM and a koff (recombinant canine β NGF [10]) of 0.000237 s⁻¹. The kon (recombinant canine β NGF [10]) was over 1e+07 M⁻¹ s⁻¹.
